Common to all, as to assay: SPR; biotinylated ADO or ADO mutant immobilised on a Biotin CAP chip (~2500-3000 RU), substrate peptide injected; Biacore T200, 4 °C; 20 mM HEPES pH 7.5, 500 mM NaCl, 10 mM DTT, 0.1% tween-20; 50 µL/minute; multi-cycle or single-cycle mode not given; each cell is one of three independent measurements
Holding throughout (conditions): both partners purified
Background: Surface plasmon resonance follows binding to a sensor surface in real time, without labels.

In test [1] the target is T1, ADO-Y87A, N-terminally His-tagged and biotinylated (human, UniProt Q96SZ5 1-270, Y87A, biotin (biotinylated during expression)).
T1 construct: 2-aminoethanethiol dioxygenase (ADO), human, UniProt Q96SZ5, full length, site-directed mutant; source: E. coli Rosetta2(DE3), purified (Ni-NTA, SEC); not shown: biotinylation tag (from the vector pQE80L-Navi), N-terminal, kept
T1 sequence (looked up): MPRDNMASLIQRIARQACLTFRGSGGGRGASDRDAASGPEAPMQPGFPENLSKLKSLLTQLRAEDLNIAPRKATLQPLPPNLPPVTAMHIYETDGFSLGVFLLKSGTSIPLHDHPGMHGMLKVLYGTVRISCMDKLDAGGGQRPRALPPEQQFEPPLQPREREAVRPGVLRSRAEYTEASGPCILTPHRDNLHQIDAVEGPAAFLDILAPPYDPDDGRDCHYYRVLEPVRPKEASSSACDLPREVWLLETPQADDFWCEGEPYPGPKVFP

Test [2] concerns the target T2, ADO-Y87F, N-terminally His-tagged and biotinylated (human, UniProt Q96SZ5 1-270, Y87F, biotin (biotinylated during expression)).
T2 construct: 2-aminoethanethiol dioxygenase (ADO), human, UniProt Q96SZ5, full length, site-directed mutant; source: E. coli Rosetta2(DE3), purified (Ni-NTA, SEC); not shown: biotinylation tag (from the vector pQE80L-Navi), N-terminal, kept
T2 sequence (looked up): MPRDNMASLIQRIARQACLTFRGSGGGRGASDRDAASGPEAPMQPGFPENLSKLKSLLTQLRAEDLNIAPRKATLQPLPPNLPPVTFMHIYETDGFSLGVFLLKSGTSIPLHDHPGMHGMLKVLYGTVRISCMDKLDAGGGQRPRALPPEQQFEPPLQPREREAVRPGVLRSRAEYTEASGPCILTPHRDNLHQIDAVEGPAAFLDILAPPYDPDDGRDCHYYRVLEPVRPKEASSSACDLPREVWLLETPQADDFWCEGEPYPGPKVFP

For test [3], the target named is T3, ADO-F101A, N-terminally His-tagged and biotinylated (human, UniProt Q96SZ5 1-270, F101A, biotin (biotinylated during expression)).
T3 construct: 2-aminoethanethiol dioxygenase (ADO), human, UniProt Q96SZ5, full length, site-directed mutant; source: E. coli Rosetta2(DE3), purified (Ni-NTA, SEC); not shown: biotinylation tag (from the vector pQE80L-Navi), N-terminal, kept
T3 sequence (looked up): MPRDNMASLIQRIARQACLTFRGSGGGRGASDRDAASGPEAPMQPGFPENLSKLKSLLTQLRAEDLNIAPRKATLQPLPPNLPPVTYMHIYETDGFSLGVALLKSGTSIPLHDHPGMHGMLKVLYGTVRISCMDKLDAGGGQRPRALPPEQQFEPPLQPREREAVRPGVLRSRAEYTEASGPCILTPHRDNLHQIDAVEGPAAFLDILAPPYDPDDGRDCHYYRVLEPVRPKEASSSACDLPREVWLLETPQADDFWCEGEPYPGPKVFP

For test [4], the target named is T4, ADO-Y212A, N-terminally His-tagged and biotinylated (human, UniProt Q96SZ5 1-270, Y212A, biotin (biotinylated during expression)).
T4 construct: 2-aminoethanethiol dioxygenase (ADO), human, UniProt Q96SZ5, full length, site-directed mutant; source: E. coli Rosetta2(DE3), purified (Ni-NTA, SEC); not shown: biotinylation tag (from the vector pQE80L-Navi), N-terminal, kept
T4 sequence (looked up): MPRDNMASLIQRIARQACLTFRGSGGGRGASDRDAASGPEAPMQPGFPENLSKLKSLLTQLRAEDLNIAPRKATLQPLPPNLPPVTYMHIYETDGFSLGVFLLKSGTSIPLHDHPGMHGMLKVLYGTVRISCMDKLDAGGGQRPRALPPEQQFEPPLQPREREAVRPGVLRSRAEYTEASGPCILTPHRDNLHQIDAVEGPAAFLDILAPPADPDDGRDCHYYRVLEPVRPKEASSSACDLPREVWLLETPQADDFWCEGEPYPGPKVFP

For test [5], the target named is T5, ADO-Y212F, N-terminally His-tagged and biotinylated (human, UniProt Q96SZ5 1-270, Y212F, biotin (biotinylated during expression)).
T5 construct: 2-aminoethanethiol dioxygenase (ADO), human, UniProt Q96SZ5, full length, site-directed mutant; source: E. coli Rosetta2(DE3), purified (Ni-NTA, SEC); not shown: biotinylation tag (from the vector pQE80L-Navi), N-terminal, kept
T5 sequence (looked up): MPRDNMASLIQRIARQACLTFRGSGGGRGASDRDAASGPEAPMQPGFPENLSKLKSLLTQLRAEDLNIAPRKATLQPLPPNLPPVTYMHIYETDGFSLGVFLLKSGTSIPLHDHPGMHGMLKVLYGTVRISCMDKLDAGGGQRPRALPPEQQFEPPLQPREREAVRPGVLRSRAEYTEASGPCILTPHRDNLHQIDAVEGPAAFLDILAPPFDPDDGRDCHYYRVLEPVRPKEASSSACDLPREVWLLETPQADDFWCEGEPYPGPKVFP

Several values for one entry are separate records, joined by “and”; a condition that tells them apart may be missing. Identical values can stand only once.

In general, Kd refers to a measure of binding affinity in units of concentration. A lower Kd goes with higher affinity.

B1: IL32(2-15), synthetic peptide corresponding to the methionine excised N-terminus of IL32, residues 2-15 (peptide, UniProt P24001 2-15, looked up)
peptide: CFPKVLSDDMKKLK
notes: interleukin 32 (IL32), residues 2-15 (N-terminal Cys exposed); also called 14-mer IL32; source: synthetic peptide
As for B1, the Kd in test [1] was 4.57 µM and 3.79 µM and 4.17 µM; in test [2], 0.303 µM and 0.327 µM and 0.329 µM; in test [3], 37.9 µM and 35 µM and 37.6 µM; in test [4], 34 µM and 24.7 µM; in test [5] it was 8.76 µM and 9.12 µM and 9.82 µM.

Values taken from paper PMC12098869, “An mRNA-display derived cyclic peptide scaffold reveals the substrate binding interactions of an N-terminal cysteine oxidase” (Nature Communications, 2025).
